1 molecule from patent publication US20210380675A1 (Kyowa Kirin, published 2021) can be followed below.

By Kd is commonly meant the equilibrium constant for the complex coming apart. High values mean a looser complex, low ones a tighter complex. Usually koff stands for the rate constant with which the complex falls apart. Higher therefore signals a short-lived complex. A word on the kon: it is a measure of how fast the partners come together.

For assay [1], the target named is T1, human IL-36α(R12), truncated (human, UniProt Q9UHA7 6-158).
T1 chain: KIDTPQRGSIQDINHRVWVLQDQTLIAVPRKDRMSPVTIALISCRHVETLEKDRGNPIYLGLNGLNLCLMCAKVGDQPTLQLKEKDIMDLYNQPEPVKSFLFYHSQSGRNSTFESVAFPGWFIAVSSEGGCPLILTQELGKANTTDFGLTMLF
Nature of the assay: cell-based or functional assay.

The target in assay [2] is T2, human IL-36γ, truncated (human, UniProt Q9NZH8 18-169).
T2 sequence: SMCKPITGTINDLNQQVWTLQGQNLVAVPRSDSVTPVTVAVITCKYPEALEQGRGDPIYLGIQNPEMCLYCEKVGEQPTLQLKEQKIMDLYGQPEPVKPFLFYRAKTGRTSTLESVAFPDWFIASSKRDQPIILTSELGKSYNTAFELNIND
Nature of the assay: cell-based or functional assay.

Assay [3] has as its target T3, cynomolgus IL-36α, truncated (cynomolgus macaque (Macaca fascicularis), UniProt Q9UHA7 14-158 (human entry), limits assumed).
T3 construct: Untagged after removal of the His-SUMO tag; also called cynomolgus IL-36 alpha; cyIL-36alpha
T3 chain: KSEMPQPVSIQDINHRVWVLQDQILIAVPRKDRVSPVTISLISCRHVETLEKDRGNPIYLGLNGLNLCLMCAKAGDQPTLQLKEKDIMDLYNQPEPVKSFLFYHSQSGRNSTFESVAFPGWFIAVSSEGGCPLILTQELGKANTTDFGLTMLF
Nature of the assay: ELISA binding screen and HaCaT assay. On the technique in general: An ELISA detects its analyte on a solid surface through an enzyme-linked reagent.

Assay [4] concerns the target T4, cynomolgus IL-36γ, truncated (cynomolgus macaque (Macaca fascicularis), UniProt Q9NZH8 18-167 (human entry), limits assumed).
T4 construct: Untagged after removal of the His-SUMO tag; also called cynomolgus IL-36 gamma; cyIL-36gamma
T4 chain: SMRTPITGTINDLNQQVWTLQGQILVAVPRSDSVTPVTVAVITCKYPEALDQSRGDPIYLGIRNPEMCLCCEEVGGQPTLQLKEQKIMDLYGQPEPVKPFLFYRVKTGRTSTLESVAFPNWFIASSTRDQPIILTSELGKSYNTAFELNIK
As to the kind of experiment: ELISA binding screen and HaCaT assay.

In assay [5] the target is T1, human IL-36α(R12), truncated. Nature of the assay: SPR, Biacore T200, antibody on chip, IL-36 as analyte, 1:1 Langmuir fit. An outline of the steps: (§1)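 Single-cycle kinetics: mouse/human chimeric or mouse antibodies captured (~200 RU) via anti-human or anti-mouse Fc on CM5, then increasing IL-36 concentrations injected, 300 s association, 1200 s dissociation. Alternatively ~2000 RU antibody amine-coupled, analyte 30 μL/min for 420 s, 3600 s dissociation, 25° C; double-referenced sensorgrams.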
(In general: Surface plasmon resonance follows binding to a sensor surface in real time, without labels.)

In assay [6] the target is T2, human IL-36γ, truncated. Described as above. The method, boiled down:
as §1

B1: 144D666C (antibody, V domains shown)
VH: EVQLQQSGAELVKPGASVKLTCTASGFNIKDTYIYWVKQRPAQGLEWIGRIDPANAYTKFDPKFQGKATLTADTSSNTAYLQLSSLTSEDTAVYYCTRFHWYGSSFFFDYWGQGTTLTVSS
VL: QAVVTQESALTTSPGETVTLTCRSSTGAVTTSNYANWVQEKPDHLFTGLIGGTDNRPPGVPARFSGSLIGDKAALTITGAQTEDEAIYFCALWYSNLWVFGGGTKLTVL
notes: Mouse monoclonal from hybridoma; mouse IgG heavy and lambda light chain
B1: the “IC50 of IL-8 secretion, HaCaT, 10 nM human IL-36α, FIG. 1A” value in assay [1] turned out to be 49.5 nM. In addition, in the assay with human IL-36γ, truncated [2], the “IC50 of IL-8 secretion, HaCaT, 10 nM human IL-36γ, FIG. 1D” value is 5.12 nM. For the same molecule, in assay [3], the binding result is “binds”. Also, in assay [4], the binding result was “binds”. In assay [5], this molecule returned a Kd of 18 nM, a koff of 0.00184 s⁻¹ and a kon of 102000 M⁻¹ s⁻¹. In the assay with human IL-36γ, truncated [6], the Kd worked out at 1.08 nM, the koff is 0.000676 s⁻¹ and the kon was 625000 M⁻¹ s⁻¹.
